Experimental data published in the Human Domainome abundance scans (Beltran et al. 2025).
± gives the uncertainty stated by the source.

B1: SWI/SNF-related matrix-associated actin-dependent regulator of chromatin subfamily B member 1, residues 181 to 248; numbered along this chain, Q12824 (parent)
chain: SQPEVLVPIRLDMEIDGQKLRDAFTWNMNEKLMTPEMFSEILCDDLDLNPLTFVPAIASAIRQQIESY

Variants of: B1
Assay: abundance fitness (aPCA) (normalised: wild type 0, dead -1); higher = more abundant; growth selection in yeast, the domain comes from the species named
Conditions: Homo sapiens

Abundance fitness of substitutions, site by site:
Q18: W 0.158 ± 0.21; P -0.93 ± 0.23; A -0.311 ± 0.069; K -0.234 ± 0.26; S -0.425 ± 0.099; V 0.107 ± 0.083; G -1.01 ± 0.27; L -0.297 ± 0.16; H -0.136 ± 0.33; R -0.276 ± 0.13; T -0.347 ± 0.11
F24: N -0.964 ± 0.2; A -0.974 ± 0.099; Q -1.06 ± 0.24; H -0.991 ± 0.29; T -0.746 ± 0.15; I -0.156 ± 0.15; P -0.866 ± 0.18; D -0.451 ± 0.098; S -0.822 ± 0.098; V -0.331 ± 0.051; G -0.884 ± 0.092; C -0.702 ± 0.15; K -0.941 ± 0.16; W -0.293 ± 0.063; E -0.763 ± 0.15; M -0.71 ± 0.11
L20: S -0.603 ± 0.28; V -0.01 ± 0.076; E -0.94 ± 0.32; P -0.622 ± 0.29; M -0.655 ± 0.19; H -0.525 ± 0.37; R -0.501 ± 0.1; I -0.013 ± 0.14; F -0.011 ± 0.1; N -0.788 ± 0.45; G -0.677 ± 0.18; C -0.319 ± 0.067; A -0.671 ± 0.23; K -0.598 ± 0.29
M13: W -0.606 ± 0.41
D16: L -0.5 ± 0.055; Y -0.546 ± 0.086; N -0.312 ± 0.11; R -0.415 ± 0.044; G -0.027 ± 0.04; S -0.39 ± 0.048; T -0.801 ± 0.16; K -0.498 ± 0.081; H -0.247 ± 0.057; Q -0.168 ± 0.062; W -0.822 ± 0.15; V -1.02 ± 0.14; E -0.042 ± 0.06; F -0.928 ± 0.31; I -0.861 ± 0.22; A -0.161 ± 0.035
R21: V 0.115 ± 0.04; K 0.011 ± 0.13; L -0.204 ± 0.062; E -0.026 ± 0.085; I 0.081 ± 0.094; T 0.009 ± 0.075; N 0.098 ± 0.072; C 0.096 ± 0.066; H 0.164 ± 0.076; W -0.368 ± 0.13; M -0.073 ± 0.085; Y -0.227 ± 0.085; D 0.133 ± 0.13; A -0.076 ± 0.056; S -0.054 ± 0.055; F -0.17 ± 0.11; P -0.357 ± 0.14
I15: E -0.765 ± 0.18; C -0.702 ± 0.19; Y 0.116 ± 0.15; S -0.934 ± 0.47; L 0.01 ± 0.12; K -0.982 ± 0.47; V -0.516 ± 0.088; A -0.917 ± 0.23; F -0.282 ± 0.19; R -0.722 ± 0.12; M -0.667 ± 0.24; G -0.97 ± 0.25; H -0.625 ± 0.28
G17: V -1 ± 0.13; T -0.896 ± 0.24; P -0.927 ± 0.29; M -1.07 ± 0.27; S -0.769 ± 0.13; H -0.66 ± 0.23; R -0.713 ± 0.071; D -0.745 ± 0.18; A -0.867 ± 0.13; C -0.545 ± 0.12; W -0.897 ± 0.14; K -0.365 ± 0.099; E -0.931 ± 0.18; N -0.714 ± 0.49
T25: L -0.134 ± 0.046; K -0.125 ± 0.066; Q -0.121 ± 0.046; H -0.065 ± 0.13; M 0.092 ± 0.051; F 0.311 ± 0.21; Y -0.326 ± 0.18; C -0.08 ± 0.063; W -0.228 ± 0.05; R -0.451 ± 0.045; S -0.173 ± 0.061; D 0.021 ± 0.044; V -0.048 ± 0.036; G -0.544 ± 0.049; P -0.314 ± 0.084; A -0.172 ± 0.051
D22: L 0.001 ± 0.12; T 0.28 ± 0.077; M -0.277 ± 0.4; V -0.037 ± 0.16; R 0.284 ± 0.15; N 0.005 ± 0.25; W 0.293 ± 0.3; C 0.035 ± 0.096; S -0.21 ± 0.25; Q 0.052 ± 0.24; G -0.418 ± 0.28; H 0.385 ± 0.15
W26: A -1 ± 0.28; C -0.673 ± 0.42; M -0.566 ± 0.33; E -0.628 ± 0.33; Q -0.879 ± 0.29; T -0.854 ± 0.26; R -0.498 ± 0.18
E14: H -0.202 ± 0.18; P -0.937 ± 0.22; W -0.96 ± 0.25; V -0.199 ± 0.059; M -0.065 ± 0.11; G -0.819 ± 0.16; R -0.733 ± 0.14; L -0.299 ± 0.094; K -0.334 ± 0.45; D 0.026 ± 0.15; S -0.071 ± 0.12; Y -0.633 ± 0.35
A23: S 0.089 ± 0.064; I -0.076 ± 0.17; M 0.048 ± 0.067; W -0.144 ± 0.039; F -0.039 ± 0.093; E 0.221 ± 0.076; D 0.211 ± 0.063; Q 0.09 ± 0.09; V 0.116 ± 0.054; Y -0.147 ± 0.11; G -0.291 ± 0.038; K 0.102 ± 0.083; T 0.155 ± 0.056; L -0.387 ± 0.15; P -0.599 ± 0.28
K19: C 0.128 ± 0.11; A -0.32 ± 0.17; W -0.7 ± 0.5
